The results in this text go back to article PMC11220700, “Activation and Purification of ß‐Glucocerebrosidase by Exploiting its Transporter LIMP‐2 – Implications for Novel Treatment Strategies in Gaucher's and Parkinson's Disease” (Advanced Science, 2024).

For the experiment, the target named is imiglucerase/Cerezyme (recombinant GCase, Sanofi Genzyme), P04062.

*: point of attachment. Biotin = O=C1N[C@H]2[C@H](CS[C@H]2CCCCC(=O)*)N1

Chain of imiglucerase/Cerezyme (recombinant GCase, Sanofi Genzyme), P04062 (P04062 40-536): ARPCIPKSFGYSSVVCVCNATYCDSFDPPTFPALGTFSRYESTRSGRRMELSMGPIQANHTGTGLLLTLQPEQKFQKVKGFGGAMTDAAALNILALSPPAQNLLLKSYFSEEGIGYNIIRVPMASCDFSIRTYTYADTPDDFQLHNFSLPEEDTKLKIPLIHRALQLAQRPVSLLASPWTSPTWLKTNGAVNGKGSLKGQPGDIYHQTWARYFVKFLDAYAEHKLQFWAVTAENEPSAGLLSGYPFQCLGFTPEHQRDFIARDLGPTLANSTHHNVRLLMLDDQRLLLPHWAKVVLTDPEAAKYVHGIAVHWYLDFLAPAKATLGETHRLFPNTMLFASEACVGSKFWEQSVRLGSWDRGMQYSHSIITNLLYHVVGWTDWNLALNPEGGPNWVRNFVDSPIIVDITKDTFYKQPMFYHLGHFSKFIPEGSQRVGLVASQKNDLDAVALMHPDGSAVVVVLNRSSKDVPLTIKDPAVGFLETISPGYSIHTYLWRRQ

As to Biotin-KFERQGSGSQVHFLREIIEAMLKAYQSGSGYGRKKRRQRRR-NH2 [L2H5‐wt peptide (LIMP‐2‐derived helix 5 peptide)], the other is 2.63 fold.
